# Data from PMC12489471, “A multi-dentate, cooperative interaction between endo- and exo-ribonucleases within the bacterial RNA degradosome” (Nucleic Acids Research, 2025).
# T1: E. coli PNPase (E. coli, UniProt P05055 1-711)
# T1 construct: polynucleotide phosphorylase (PNPase), E. coli; also called polynucleotide phosphorylase; full-length PNPase; source: E. coli BL21(DE3), purified (ammonium sulfate, Q, butyl-Sepharose, SEC)
# T1 sequence (looked up): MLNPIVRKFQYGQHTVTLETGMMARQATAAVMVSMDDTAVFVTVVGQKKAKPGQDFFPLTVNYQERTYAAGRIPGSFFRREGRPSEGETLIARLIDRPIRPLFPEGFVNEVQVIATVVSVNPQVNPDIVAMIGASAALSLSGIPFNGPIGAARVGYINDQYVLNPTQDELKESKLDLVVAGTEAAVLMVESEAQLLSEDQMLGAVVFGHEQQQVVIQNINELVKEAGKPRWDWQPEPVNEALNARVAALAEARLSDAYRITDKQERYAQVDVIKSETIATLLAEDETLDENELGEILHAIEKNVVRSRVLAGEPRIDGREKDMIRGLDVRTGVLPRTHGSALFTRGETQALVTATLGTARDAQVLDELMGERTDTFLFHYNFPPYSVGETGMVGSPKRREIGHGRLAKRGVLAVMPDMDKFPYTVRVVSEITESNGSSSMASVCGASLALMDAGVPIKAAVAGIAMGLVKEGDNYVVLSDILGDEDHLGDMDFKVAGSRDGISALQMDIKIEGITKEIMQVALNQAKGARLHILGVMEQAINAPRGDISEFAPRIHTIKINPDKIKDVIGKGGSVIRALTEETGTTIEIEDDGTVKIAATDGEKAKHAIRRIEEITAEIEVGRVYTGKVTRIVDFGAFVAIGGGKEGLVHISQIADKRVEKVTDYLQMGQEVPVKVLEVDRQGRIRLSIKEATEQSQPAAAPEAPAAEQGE
# T2: PNPase carrying a C-terminal Hisx6 tag (E. coli polynucleotide phosphorylase) (E. coli, UniProt P05055 1-711)
# T2 construct: polynucleotide phosphorylase (PNPase), E. coli; Immobilised through the His tag on an NTA chip for SPR; also called PNPase C-His; PNPase with a 6xHisTag at the CTD; source: E. coli Evo21(DE3), purified (Ni-NTA, butyl-Sepharose HIC, Q, Superdex S200); not shown: His6, C-terminal, kept
# T2 sequence (looked up): T1 sequence (looked up)
# T3: PNPase (Escherichia coli, UniProt P05055)
# T3 construct: made in house; host or cells: E. coli Evo21(DE3)
# T3 sequence (P05055 whole entry, looked up): T1 sequence (looked up)
# B1: RNase E 583-1061, avi-tagged (domain or fragment, E. coli, UniProt P21513 583-1061, looked up)
# chain: SGGEETKPTEQPAPKAEAKPERQQDRRKPRQNNRRDRNERRDTRSERTEGSDNREENRRNRRQAQQQTAETRESRQQAEVTEKARTADEQQAPRRERSRRRNDDKRQAQQEAKALNVEEQSVQETEQEERVRPVQPRRKQRQLNQKVRYEQSVAEEAVVAPVVEETVAAEPIVQEAPAPRTELVKVPLPVVAQTAPEQQEENNADNRDNGGMPRRSRRSPRHLRVSGQRRRRYRDERYPTQSPMPLTVACASPELASGKVWIRYPIVRPQDVQVEEQREQEEVHVQPMVTEVPVAAAIEPVVSAPVVEEVAGVVEAPVQVAEPQPEVVETTHPEVIAAAVTEQPQVITESDVAVAQEVAEQAEPVVEPQEETADIEEVVETAEVVVAEPEVVAQPAAPVVAEVAAEVETVAAVEPEVTVEHNHATAPMTRAPAPEYVPEAPRHSDWQRPTFAFEGKGAAGGHTATHHASAAPARPQPVE
# notes: The construct is described nowhere in the methods
# B2: RNase E 511-1061 (domain or fragment, E. coli, UniProt P21513 511-1061, looked up)
# chain: ALPSEEEFAERKRPEQPALATFAMPDVPPAPTPAEPAAPVVAPAPKAAPATPAAPAQPGLLSRFFGALKALFSGGEETKPTEQPAPKAEAKPERQQDRRKPRQNNRRDRNERRDTRSERTEGSDNREENRRNRRQAQQQTAETRESRQQAEVTEKARTADEQQAPRRERSRRRNDDKRQAQQEAKALNVEEQSVQETEQEERVRPVQPRRKQRQLNQKVRYEQSVAEEAVVAPVVEETVAAEPIVQEAPAPRTELVKVPLPVVAQTAPEQQEENNADNRDNGGMPRRSRRSPRHLRVSGQRRRRYRDERYPTQSPMPLTVACASPELASGKVWIRYPIVRPQDVQVEEQREQEEVHVQPMVTEVPVAAAIEPVVSAPVVEEVAGVVEAPVQVAEPQPEVVETTHPEVIAAAVTEQPQVITESDVAVAQEVAEQAEPVVEPQEETADIEEVVETAEVVVAEPEVVAQPAAPVVAEVAAEVETVAAVEPEVTVEHNHATAPMTRAPAPEYVPEAPRHSDWQRPTFAFEGKGAAGGHTATHHASAAPARPQPVE
# notes: as for B1
# B3: RNase E 1039-1061 (peptide, UniProt P21513 1039-1061, looked up)
# chain: GAAGGHTATHHASAAPARPQPVE
# notes: source: E. coli Evo21(DE3), pMxe vector, purified (Ni-NTA, amylose, TEV, Q, Superdex 75); not shown: His6, N-terminal, cleaved; MBP, N-terminal, cleaved; intein, C-terminal, cleaved
# B4: RNase E 985-1061 (domain or fragment, E. coli, UniProt P21513 985-1061, looked up)
# chain: VAAEVETVAAVEPEVTVEHNHATAPMTRAPAPEYVPEAPRHSDWQRPTFAFEGKGAAGGHTATHHASAAPARPQPVE
# notes: as for B3
# B5: RNase E 985-1061: RNase E peptide that includes both β1 and β2 motifs (peptide)
# chain: B4 chain
# modifications: left off: His6, N-terminal, cleaved | MBP, N-terminal, cleaved | intein, C-terminal, cleaved | choline-binding domain, C-terminal, cleaved
# notes: RNase E peptide that includes both β1 and β2 motifs
# B6: RNase E 985-1053: RNase E peptide lacking the terminal Pro-rich motif (peptide)
# chain: VAAEVETVAAVEPEVTVEHNHATAPMTRAPAPEYVPEAPRHSDWQRPTFAFEGKGAAGGHTATHHASAA
# modifications: left off: His6, N-terminal, cleaved | MBP, N-terminal, cleaved | intein, C-terminal, cleaved | choline-binding domain, C-terminal, cleaved
# notes: RNase E peptide lacking the terminal Pro-rich motif
# B7: RNase E 960-1061 (in the SEC-MALLS sample with PNPase) (domain or fragment, E. coli, UniProt P21513 960-1061, looked up)
# chain: VVETAEVVVAEPEVVAQPAAPVVAEVAAEVETVAAVEPEVTVEHNHATAPMTRAPAPEYVPEAPRHSDWQRPTFAFEGKGAAGGHTATHHASAAPARPQPVE
# notes: The expected mass of the complex fits one untagged segment of 10,585 Da on a PNPase trimer
# Experiments:
# [1] = target: T1, E. coli PNPase; assay: SEC-MALS; Superdex 200 10/300 Increase, 100 µl at ~1 mg/ml, 25°C; buffer A (50 mM Tris pH 7.5, 100 mM NaCl, 100 mM KCl, 0.01% w/v b-DDM, 1 mM TCEP) or B (A without b-DDM) as Table S2 tells for each sample; the 1:1 ratio is one RNase E segment to one PNPase trimer (expected mass = trimer plus one segment); settings: both partners purified
# [2] = SEC-MALLS molar mass of PNPase and PNPase/RNase E complexes; type: physicochemical
# Procedure: Estimation of molar masses of PNPase and the various PNPase/RNase E complexes was carried out by size-exclusion chromatography with multi-angle laser light scattering (SEC-MALLS). Proteins (100 μl at ∼1 mg/ml concentration) were loaded onto a Superdex 200 10/300 Increase GL SEC column (GE Healthcare) at 0.5 ml/min using an AKTA Purifier FPLC system ([…]). Chromatograms were acquired using UNICORN software (GE Healthcare) at 280 nm. The eluent from the S200 column was analysed with an online DAWN HELEOS II MALLS instrument with eight detectors (Wyatt Technology), followed by an Optilab T-rEX differential refractometer (Wyatt Technology) at 25°C. Data collection and analysis were performed using ASTRA 6 software (Wyatt Technology). Eluted peaks from SEC column were evaluated by Zimm Plot, using a dn/dc value of 0.1850 ml/g. Bovine serum albumin was used as a standard to confirm the system performance (Supplementary Table S1).
# [3] = target: T2, PNPase carrying a C-terminal Hisx6 tag …; assay: SPR; PNPase with C-terminal His6 tag immobilised on Series S Sensor Chip NTA (5 RU); Biacore T200, 25°C; 20 mM HEPES pH 7.2, 150 mM NaCl, 5 mM MgCl2, 0.5 mM TCEP, 0.05% Tween 20; six peptide concentrations up to 9000 nM (up to 5000 nM for RNase E 985–1061); contact 60 s, dissociation 120 s; settings: both partners purified
# [4] = target: T3, PNPase; type: binding, E. coli; settings: for KD range in words / k a / k d: pH 7.2
# Description: Briefly, at the N-terminal of the construct, there is an Hisx6 affinity tag that will be used for affinity purification. Following the Hisx6 tag there is an maltose-binding protein (MBP) tag with a TEV cleavage site to maintain solubility of the peptides. Following the MBP tag the gene encoding the peptide is inserted, and is then followed by intein, a self-cleavable tag, followed by a choline-binding domain, which can be used for an extra step of affinity purification. […] After expression, cells were harvested, resuspended in Lysis Buffer 2 (20 mM Tris–HCl, pH 8.0, 80 mM KCl, 300 mM NaCl, 20 mM Imidazole, 0.5 mM TCEP), and lysed with a cell disruptor (Emulsiflex, Avestin). […] After subsequent rounds of washing with Ni Equilibration Buffer supplemented with, respectively, 0.1% Triton-X, 1 M NaCl, and a final wash in Ni Equilibration Buffer, samples were eluted with Ni Elution Buffer (20 mM Tris–HCl, pH 8.0, 300 mM NaCl, 300 mM imidazole, 0.5 mM TCEP). Enriched fractions were then supplemented with 100 mM β-mercaptoethanol to catalyse intein self-cleavage overnight at room temperature. Treated samples were filtered and loaded on an amylose gravity flow column, equilibrated with Amy Equilibration Buffer (20 mM Tris–HCl, pH 8.0, 20 mM NaCl, 20 mM imidazole, 2 mM β-mercaptoethanol) and after washing, His-tagged TEV protease was applied to the resin and incubated at 4°C for 2 h.
# PNPase carrying a C-terminal Hisx6 tag was expressed from pExp-cis-Ec_PNP-CHis vector in E. coli Evo21(DE3) cells, induced with 0.4 mM IPTG, at 18°C overnight. After expression, cells were harvested and resuspended in Lysis Buffer 2 (20 mM Tris–HCl, pH 8.0, 80 mM KCl, 300 mM NaCl, 20 mM imidazole, 0.5 mM TCEP), and lysed with a cell disruptor (Emulsiflex, Avestin). […] After subsequent rounds of washing with equilibration buffer supplemented with 0.1% Triton-X, or 1 M NaCl, the sample was eluted with Ni PNPCHis Elution Buffer (20 mM NaH2PO4, pH 8.0, 300 mM NaCl, 300 mM KCl, 5 mM MgCl2, 300 mM imidazole, pH 7.5, 10 mM β-mercaptoethanol). […] Fractions containing PNPase were run through a HiPrep™ 26/10 Desalting Column (GE Healthcare) and buffer exchanged to Q PNPCHis A (20 mM NaH2PO4, pH 8.0, 30 mM NaCl, 10% glycerol, 0.5 mM TCEP).
# Interaction measurements were made using a Biacore T200 instrument (GE) at 25°C. PNPase with a 6xHisTag at the CTD was immobilized on a Series S Sensor Chip NTA (Cytiva) to provide a signal of 5 response units (RU). […] For the SPR analysis of the point mutants, binding to PNPase was measured at four different concentrations (0, 12.5, 25, and 50 nM). All concentrations were run in duplicates. The contact time was 60 s, while the dissociation time was 120 s, at a […] flow rate. […] The chip surface was regenerated with 350 mM EDTA in water, following manufacturer's instructions. Data were processed using the manufacturer’s BIAevaluation software.
# [5] = Superdex 200, 25°C, buffer B: A w/o bDDM
molecule,measurement,setting,value
B1,stoichiometry N,[1],1
B2,Mn number-averaged solute molar mass,[2]; [5],"63,870 Da"
same,Mw weight-averaged solute molar mass,[2]; [5],"64,020 Da"
same,Difference Mn from expected mass,"[2]; buffer B, expected: trimer:RNase E 1:1 ratio for complexes",4.4%
same,stoichiometry N,[1],1
B3,Kd,[3],5920 nM
same,koff,[3],0.833 s⁻¹
same,kon,[3],140000 M⁻¹ s⁻¹
B4,Kd,[3],4.02 nM
same,koff,[3],0.0158 s⁻¹
same,kon,[3],3.93e+06 M⁻¹ s⁻¹
B5,"cause of increase in affinity over 1039–1061, in words",[4],both acceleration of on-rate and decrease of off-rate
same,KD range in words,[4],from the micromolar range to the low nanomolar range
same,k a,[4],3.93E + 6 1/M s
same,k d,[4],0.0158 s⁻¹
B6,"binding compared with the peptide including the region with Arg1056, in words",[4],significantly weaker binding
same,KD range in words,[4],high micromolar
same,k a,[4],2.94E + 4 1/M s
same,k d,[4],0.339 s⁻¹
B7,stoichiometry N,[1],1
